Laboratory results reported in the DeepSol protein solubility set.

Test: soluble on expression in E. coli; label from the status in PepcDB or PDB records

Sequence | soluble on expression in E. coli
MSLDVINKYGTPLKLSYLPKISSQIQKAKQWFGEAITNNNYSGTYTYCYCTKSSHFSFVLNEALKNDIHIETSSAYDIPIVRILFENNKITKATNVICNGYKRPEYTDYICDLINEGFNCTPILDNLDEITAYEKGIETSCNLGIRLATDEEPKFEFYTSRLGFRYNDVVQFYKEKIEPNPKFKLKMLHFFINTGIKDTTYYWSELSRFVHMYCTMKKINPDMDSIDIGGGWPIKTSVHFEYDYKYMADQIVKTIKKVCDEEGVPTPNIFTEFGSFTVGESGAAVYSVLGSKLQNDKEEWYMIDSSFITTLPDVWGLSQKYLLLAVNGWDKPYKKVKLGGITCDSMDYYNSEAHQNLVFMPELDEKEPTYIGFFHTGAYQESLGGYGGIQHCLVPAPKHILIDKDADGNFSYNLFAPEQTKESMLKILGYKAEGHHHHHH | soluble
MSLDVNYVPQNTSDAPAIPSAALQQLTWTPVDQSKTQTTQLATGGQQLNVPGISGPVAAYSVPANIGELTLTLTSEVNKQTSVFAPNVLILDQNMTPSAFFPSSYFTYQEPGVMSADRLEGVMRLTPALGQQKLYVLVFTTEKDLQQTTQLLDPAKAYAKGVGNSIPDIPDPVARHTTDGLLKLKVKTNSSSSVLVGPLFGSSAPAPVTVGNTAAPAVAAPAPAPVKKSEPMLNDTESYFNTAIKNAVAKGDVDKALKLLDEAERLGSTSARSTFISSVKGKGEGHHHHHH | soluble
MSLDWFTVDDSVLRVALVFPLQGSAGIFGPTCELCARLAAEEVNRAGGVLGKELRLLPVDGGAPPREIADRVAALVDLGVVQGVTGWHISSVRQALAPRIAHRVPYVYTALYEGGEHTAGVFLTSETPRDQLRPAMRLLARERGVRRWFVIGNDYVWPRRTARAAHSYARECGGSIGGEVYLPLGTHDFEPVLRRIERSDADAVLMLLVGSDAVRFNRAFAAAGLDGRCLRLSTLMDENMLLASGPAATADLYSTAGFFASLANQDTLDFHGRYAARYGVEAPALGSLGESCYEGVLLLAALIGRAGTLEVSAIGAAADTVSYEGPRGLLRLRGGHVRQRIYLARADGLDFDVVAELDLHSSRPEGHHHHHH | not soluble
MSLEASLVKLSEQELTSLNYAFQQMRKPLQTINYDYAVWDRTYSYMKSNSASAKRYYEKHEYPDDTFKSLKVDGVFIFNRTNQPVFSKGFNHRNDIPLVFELTDFKQHPQNIALSPQTKQAHPPASKPLDSPDDVPSTHGVIATRYGPAIYSSTSILKSDRSGSQLGYLVFIRLIDEWFIAELSQYTAAGVEIAMADAADAQLARLGANTKLNKVTATSERLITNVDGKPLLKLVLYHTNEGHHHHHH | not soluble
MSLEELLERVFSFSDVDKLIDFISYELQKPVILESADFFLLAYNSYYINHFDSANQQTIFSKKCPVQIFERFLKDGIIEKLKTEPEPFRVNKIESIGLNQRVVVSAKHKGEVMGYIWIQELDQNLTDEELDFLYETSFHVGKIIYKTNKLKQEKEEKAEDLIKRAIYQQFTSEKELRREAERINTVLPSMFSVVILHAANGDGEAVEDLKENIRSYLNLRDKVSHVLTIESNIVIVVASFSQKSSVSSAASEFINKLLTHFHFQKIPTPIYIGIGNEYNHLLKLGKSYTEALEVIKAAEITGNQENIPYEYAKLGIYRYLESIEQKNEFLEYENKDLALLKAKDEESSTELLKTLEVYLLNNCKTKPAAEQLFIHQNTLNYRIKQITEMTSIDLSDFRTRCQLYLDLMLMKKKEGGSHHHHHH | soluble
MSLEGEQHSRERDQQAIQYHYDVSNDFYKLWLDERMVYSCAYFPGGQETLDEAQTAKLDYICRKLQLRPGERLLDIGCGWGGLSLYAAQHYGVQVLGVTLSQAQLQEGQARVRVAGLEGQVQLELRDYRDVLSRGPAQFDKIASVGMAEHVGRRNMPEYFRSAYAALKPGGLMLNHAIGDGIGQARVPMWLQSGNFARKYVFPDGELLPVWETLKYASEQLFEVRDVENLREHYALTIGHWAARLEAHRPEALALLGEERLRLWRLYLGATSYYFRKGHLTLFQSLLAKPDAERAVPLPLSRAGLYREGHHHHHH | soluble
MSLEIDADRFFKLFDSSVQGLRQCRLISAAFELGVFKALEVPLSAGALAEKIGCDPALMPHFCEALHSLGLLDRFEEGISEEKENAQIAVKGTGEAEGKEKPGDEPGDRIKNDGAVYFVSELSATYLPGNSPFSQKHYLAERIRNVERWSRLPQIMRQGPDIVEKGPFFGEVVHCMAENARCGLLQETVRVVMENVDFTNVKKFLDLGGGHGLYSIALTSLNENLQAFVFDLPPVTSETRYFIDKYGASRVDIIPGDFFKDDIGSDYDVIFSSFNPGGKVPSLIPKIAAALKPEGVFITRQVPDESMKSSPLMSLDWNLWTFEDVKKGSSGYSFENSVLFSEYIDMLGNHGLEVFRALDMTDGSRIVFAWKVTEGHHHHHH | not soluble
MSLEKSSRINGGKMNREEVKDSVLLGDSLEIMRRIDDCIYDLIFLDPPYYLQMTPKRLKRWNNRSVPQTVREYWDAFPSFEAYDSFISSVLKEAKRLMSDTSTIWAIGTYHNIFRIGKIMQDMGFWILNDVVWIKTNPMPNWLGVRFTNSTETLIWATKGKEQKNYTYNRNLAKEFGLGKTANNVWVMKTSRGNERVRDENRKSVHPAQKPLELMKRIILSSTKEGDLILDPFAGVGTTGVAASMLGRNFTLIEKDPVYYRAMLSRFSRFGIRYTEKIEGHHHHHH | not soluble
MSLEMEKYLSVTTLTKYLKMKFDKDPYLERVYLTGQVSNFRKRPTHQYFSLKDDHAVIQATIWSGIYQKLGFDLEEGMKINVIGRVQVYEPSGSYSIIIEKVEPDGVGALAIQFEQLKKKLTEEGLFQERFKQALPQFSKRIGVVTSRSGAVIRDIITTVSRRFPGVDILLYPTKVQGEGAAEEIARNIARANQRDDLDLLIIGRGGGSIEDLWAFNEEIVVRAIFESRLPVISSVGHETDVTLADFVADRRAATPTAAAELATPVTKLDVLAHLQNQEKRMVTAVRNVLSKKQEALKKCSQSVIFRQPERLYDGYLQRLDQLQLRLKQSLRTRISDNKQLVQARTHQLVQLSPVTKIQRYQDRLGQLDKLLGSQMALVYDAKVAEAKRLSEALLMLDTSRIVARGYAIVKKEESVVDSVESLKKKDQVTLLMRDGQVELEVKDVKTKEIEGHHHHHH | not soluble
MSLENGVLKVGLCAAWPPFESRNETTGEIEGFDVDLAKALGEELGVEVEIIDAEWQALLGGLSKGDYDTLITCMSKKEASVENVEMSDVYYELNDVIVVRNDNNEINSVSDLSGKIVGVQLGSGSEQAVDALSGIQEIKRYNYNPEAMIDLQNNRSDAVVVGYTYALSEISKYPDLKVLDTPVASAEIVMVQKEGAEELTAKLNEALSNIKENGKYDEIQDKWLSLEEGHHHHHH | soluble
MSLERAVPLAVPLGQTEVFQALQRLHMTIFSQSVSPCGKFLAAGNNYGQIAIFSLSSALSSEAKEESKKPVVTFQAHDGPVYSMVSTDRHLLSAGDGEVKAWLWAEMLKKGCKELWRRQPPYRTSLEVPEINALLLVPKENSLILAGGDCQLHTMDLETGTFTRVLRGHTDYIHCLALRERSPEVLSGGEDGAVRLWDLRTAKEVQTIEVYKHEECSRPHNGRWIGCLATDSDWMVCGGGPALTLWHLRSSTPTTIFPIRAPQKHVTFYQDLILSAGQGRCVNQWQLSGELKAQVPGSSPGLLSLSLNQQPAAPECKVLTAAGNSCRVDVFTNLGYRAFSLSEGHHHHHH | not soluble
MSLERPEEYLPNIFEGKKGVIVDYGCGNGFYCKYLLEFATKLYCIDINVIALKEVKEKFDSVITLSDPKEIPDNSVDFILFANSFHDMDDKQHVISEVKRILKDDGRVIIIDWRKENTGIGPPLSIRMDEKDYMGWFSNFVVEKRFNPTPYHFGLVLKRKTSEGHHHHHPDPNSSSVDKLAAALEHHHHHH | soluble
MSLESILDVLSVMYINAQLPREQRHRWRLLFSSELHGHSFSQLCGHITHRGPCVAVLEDHDKHVFGGFASCSWEVKPQFQGDNRCFLFSICPSMAVYTHTGYNDHYMYLNHGQQTIPNGLGMGGQHNYFGLWVDVDFGKGHSRAKPTCTTYNSPQLSAQENFQFDKMEVWAVGDPSEEQLAKGNKSILDADPEAQALLEISGHSRHSEGLREVPDDEGHHHHHH | not soluble
MSLESIQSSLKHMTGNRSFEKQFTQLKEAVFRSPHVQLFLEEHPSLSPITLEQGLSKLYEYQKEQSHCAHCPGLQKCPNLMKGYQPTLYVERDSLELSYSPCPLKEEEEREKKKRSLIRSLYIPKEILEAKFDDVESEPGRSIASHRALEFALSAKPGEDGMGLYLYGKFGVGKTFLMGAIANELKDRGIDSTIVYVPDFFRELKQSIGDGTFQQKLDFVKNAQVLIFDDIGAETMTSWVRDDVLGVILQYRIMEKLPTLFTSNYDYDELEEHLAYNDKSGTELLKAKRVMERIRHYTVSVMVQGQNRREHQSEGHHHHHH | soluble
MSLESSDDAPLPTDVPKDAAEALVCFLTQHVRALMSPHADPVPSCPRCGGTQIHKKGYAPLQTGPLPTYQCEGCDHYFSRLSGTPLSGHRIRRSAEELITMLPQAIGCPEAARRLGVMERTIRNTVRMFRRWVLELDPSGHHERHIRLGGRFTAVRDQAPPVVDEQIAYEDVALTAKLLEDFETIHSNKHFPMPDCPACGADRLVTKGTFSGFARFKCASCGKQFNRRTGTPFTRNRKVYERQRALIRYLGLPLSITQLAEIVGGDHGNVARLIREFRERCDQLDPTGQLSHRIRAGARPAEDTPCIQCGARHVRFDVRGITPGKCAVCGRLISMRRAIIERDGVLEVGPWQWAEQLQQEGHHHHHH | not soluble
MSLEVGFAPAEFTVTDKDGRKVFLSDYKGKYVLIYHWGLCPGTFWVNPKITDLYQKYHEKGLEVLGFTRDDLLKSLQGSSEEFKKDERVQGLLSHPWTTVYTEDEGNGFIVKDLYFSGVPILMLISPDGITLARGYTKAYEEVKNLLDRNLGNKEGHHHHHH | soluble
MSLEYNLTTTEIELVNVTASWDEGIGELFEKIKQENKANGQPNGDAGLFFTNLYVTPVLKNISLYLEKGQMLAVAGSTGSGKSSLLMMILGELVPSEGKIRHSGRISFSPQTSWIMPGTIRDNILFGLTYDEFRYTSVIKACQLEEDLALLPEKDKTPLMEGGVTLSGGQRARIGLARAVYKDADLYLLDSPFTHLDIVTEKEIFERCLCKLLSSKTRIVVTSKLEHLKRADKILLLHNGVCYFYGSFSELQAKRPDFSSLLLGLEAYDNIKAERRSSILTETLRRVSIDESTVFRGEGHHHHHH | soluble
MSLFDPNDYKDEIRQIARDKANLELDLKGDIGWSLFPWLGLELHDTSIASAATPTKPFADLQMLGLSVRVLPLLRKDVQMSAIRVEGLSLDLVRDKQGKGNWENIGKPAQPQAPAAPSETPPAADGKGAQAQAPEQAPQNDSPRTPIKLDIDSLNVNNARVTYTDEASGKQYNVEGIELSTGAIREGSSIPLKLNAYLGTNQPVVRVKTELTGNLRFDTALRRYQLEDARLSGEASGEPLQGKTATFSAQGQLLLDQSAQIAEWNGLKLSVNQLRALGELKARELDKDTKFSGGLSIAPMNLREFLAGIGVTLPAMADANTLGKFELNTRLAGSRNSLNLEDLKLGLDDTAFSGRFGIADFARQSLRAQLKGDKLDLDRYLPAKAKQAQDAASATRKAEVDATVASAAQGNTPLPEKPTRQAWSDAPLLPIATLRKLDLDVALNFGRLTVEKLPIDDASLKLRGQGGVISLDDMRGGLYNGRFNAKANLDVRQDSAVLTATKHIANVPVERLLEAQGKKPPVKGLLDLDADIRTSGNSEKSWIDHLNGNARFSLINGVLPDANLEQQLCQGIATLNRKALAGTHGGKDTPFRELKGSLNFTNGVASNPDLKVAIPGLAVSGHGDIDLRVLGMDYRIGVEIQGDKSDMPDPACQVNQRYAGIEWPLLCRGPLELGAKACRLDKEGMGKVAAKLAGNRLNEKLEEKLGDKVSPELKDALKGLFNRKEGHHHHHH | soluble
